Several values for one entry are separate records, joined by “and”; a condition that tells them apart may be missing. Equal values may be shown once. Read-outs that look alike come from different tables or passages of the source.
Key:
CD24 (cell surface) [1] = biological target: T1, CD24 (cell surface) (human); experiment: FACS, MDA-MB-468
T1 chain: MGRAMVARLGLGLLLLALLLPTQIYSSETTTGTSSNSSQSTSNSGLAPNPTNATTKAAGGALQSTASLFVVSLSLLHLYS

CD24(27-56aa)-GST NEOX-4 [2] = biological target: CD24(27-56aa)-GST NEOX-4 (human); experiment: ELISA
Sequence of CD24(27-56aa)-GST NEOX-4 (human) (chain, as listed by the source): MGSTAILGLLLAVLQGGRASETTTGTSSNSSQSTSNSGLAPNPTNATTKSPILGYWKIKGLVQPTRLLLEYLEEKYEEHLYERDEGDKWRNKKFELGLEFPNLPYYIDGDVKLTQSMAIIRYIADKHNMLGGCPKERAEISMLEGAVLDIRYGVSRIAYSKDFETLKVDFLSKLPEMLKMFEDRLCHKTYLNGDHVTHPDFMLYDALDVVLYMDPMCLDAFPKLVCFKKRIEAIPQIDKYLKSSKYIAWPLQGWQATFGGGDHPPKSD

CD24 (cell surface) [3] = biological target: T1, CD24 (cell surface); experiment: FACS, NALM6
[4] = biological target: T2, CD24 biotinylated (ACRO CD4-H82E9) (human, UniProt P25063); experiment: SPR
T2 chain: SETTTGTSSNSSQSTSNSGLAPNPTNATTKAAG

CD24(27-56aa)-GST NEOX-4 [5] = biological target: CD24(27-56aa)-GST NEOX-4 (human); experiment: ELISA; remark: listed apart in the source
CD24(27-56aa)-GST NEOX-4 [6] = biological target: CD24(27-56aa)-GST NEOX-4 (human); experiment: ELISA; remark: listed apart in the source
[7] = biological target: T2, CD24 biotinylated (ACRO CD4-H82E9); experiment: SPR

B1: huG14-217 (antibody, V domains shown)
VH: EVQLVESGGGLVKPGGSLRLSCAASGLTFSNYWGNWVRQAPGKGLEWVALIRLYSDNYAIHYAESVKGRFTISRDDSKSTVYLQMNSLKTEDTAVYYCTTGTDYWGQGTTVTVSS
VL: DVVMTQSPLSLPVTPGRPASISCKSSHSLLYSNGRTYLNWLLQKPGQSPQRLIYLVSKLDSGVPDRFSGSGSGTDFTLKISRVEAEDLGVYYCIQGTYFPYTFGQGTKLEIK
- EC50 (CD24 (cell surface) [1]): 1.21 µg/mL
- EC50 (CD24(27-56aa)-GST NEOX-4 [2]): 0.00443 µg/mL
- EC50 (CD24 (cell surface) [3]): 0.348 µg/mL

B2: huG14-124-2 (antibody, V domains shown)
VH: EVQLVESGGGLVKPGGSLRLSCAASGLTFSNYWGNWVRQAPGKGLEWVALIRLYSDNYAIHYAESVKGRFTISRDDSKSTVYLQMNSLKTEDTAVYYCTTGTDYWGQGTTVTVSS
VL: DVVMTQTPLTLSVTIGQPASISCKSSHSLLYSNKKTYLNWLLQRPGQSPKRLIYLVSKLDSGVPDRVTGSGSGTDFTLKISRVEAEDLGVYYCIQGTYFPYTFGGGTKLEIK
- Kd [4]: 1.58 nM

B3: huG14-131 (antibody, V domains shown)
VH: EVQLVESGGGLVKPGGSLRLSCAASGLTFSNYWMNWVRQAPGKGLEWVALIRLYSDNYAIHYAESVKGRFTISRDDSKSTVYLQMNSLKTEDTAVYYCTTGTDNWGQGTTVTVSS
VL: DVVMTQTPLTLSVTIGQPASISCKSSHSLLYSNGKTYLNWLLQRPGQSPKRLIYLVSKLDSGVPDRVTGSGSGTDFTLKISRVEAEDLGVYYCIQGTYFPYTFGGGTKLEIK
- EC50 (CD24 (cell surface) [1]): 0.57 µg/mL
- EC50 (CD24 (cell surface) [3]): 0.391 µg/mL

B4: huG14-124-7 (antibody, V domains shown)
VH: EVQLVESGGGLVKPGGSLRLSCAASGLTFSNYWGNWVRQAPGKGLEWVALIRLYSDNYAIHYAESVKGRFTISRDDSKSTVYLQMNSLKTEDTAVYYCTTGTDYWGQGTTVTVSS
VL: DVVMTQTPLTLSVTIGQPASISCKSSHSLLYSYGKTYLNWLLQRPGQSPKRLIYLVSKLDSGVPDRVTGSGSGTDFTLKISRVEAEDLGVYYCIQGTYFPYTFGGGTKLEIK
- Kd [4]: 1.07 nM

B5: huG14-103 (antibody, V domains shown)
VH: EVQLVESGGGLVKPGGSLRLSCAASGLTFSNYWMNWVRQAPGKGLEWVALIRLYSDNYAIHYAESVKGRFTISRDDSKSTVYLQMNSLKTEDTAVYYCTTGTDYWGQGTTVTVSS
VL: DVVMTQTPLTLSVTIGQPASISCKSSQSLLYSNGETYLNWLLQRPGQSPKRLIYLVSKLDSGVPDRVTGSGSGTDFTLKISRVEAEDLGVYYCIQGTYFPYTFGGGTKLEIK
- EC50 (CD24(27-56aa)-GST NEOX-4 [5]): 0.00813 µg/mL

B6: huG14-124-6 (antibody, V domains shown)
VH: EVQLVESGGGLVKPGGSLRLSCAASGLTFSNYWGNWVRQAPGKGLEWVALIRLYSDNYAIHYAESVKGRFTISRDDSKSTVYLQMNSLKTEDTAVYYCTTGTDYWGQGTTVTVSS
VL: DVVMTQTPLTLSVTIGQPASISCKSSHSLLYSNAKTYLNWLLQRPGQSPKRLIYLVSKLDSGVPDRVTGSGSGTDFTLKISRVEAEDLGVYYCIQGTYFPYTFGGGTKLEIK
- Kd [4]: 2.54 nM

B7: huG14-104 (antibody, V domains shown)
VH: EVQLVESGGGLVKPGGSLRLSCAASGLTFSNYWMNWVRQAPGKGLEWVALIRLYSDNYAIHYAESVKGRFTISRDDSKSTVYLQMNSLKTEDTAVYYCTTGTDYWGQGTTVTVSS
VL: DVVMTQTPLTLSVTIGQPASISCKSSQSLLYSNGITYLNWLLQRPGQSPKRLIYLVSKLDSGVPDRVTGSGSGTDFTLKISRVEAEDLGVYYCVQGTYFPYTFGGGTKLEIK
- EC50 (CD24(27-56aa)-GST NEOX-4 [5]): 0.0183 µg/mL

B8: huG14-111 (antibody, V domains shown)
VH: EVQLVESGGGLVKPGGSLRLSCAASGLTFSNYWMNWVRQAPGKGLEWVALIRLYSDNYAIHYAESVKGRFTISRDDSKSTVYLQMNSLKTEDTAVYYCTTGTDFWGQGTTVTVSS
VL: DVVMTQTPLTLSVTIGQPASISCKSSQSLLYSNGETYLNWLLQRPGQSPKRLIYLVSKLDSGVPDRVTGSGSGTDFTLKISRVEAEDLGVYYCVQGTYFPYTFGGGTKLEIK
- EC50 (CD24(27-56aa)-GST NEOX-4 [5]): 0.0293 µg/mL

B9: huG14-232 (antibody, V domains shown)
VH: EVQLVESGGGLVKPGGSLRLSCAASGLTFSNYWGNWVRQAPGKGLEWVALIRLYSDNYAIHYAESVKGRFTISRDDSKSTVYLQMNSLKTEDTAVYYCTTGTDNWGQGTTVTVSS
VL: DVVMTQSPLSLYVTPGRPASISCKSSHSLLYSNGRTYLNWLLQKPGQSPQRLIYLVSKLDSGVPDRFSGSGSGTDFTLKISRVEAEDLGVYYCIQGTYFPYTFGQGTKLEIK
- EC50 (CD24 (cell surface) [1]): 0.484 µg/mL
- EC50 (CD24(27-56aa)-GST NEOX-4 [2]): 0.00621 µg/mL
- EC50 (CD24 (cell surface) [3]): 0.235 µg/mL

B10: huG14-107 (antibody, V domains shown)
VH: EVQLVESGGGLVKPGGSLRLSCAASGLTFSNYWMNWVRQAPGKGLEWVALIRLYSDNYAIHYAESVKGRFTISRDDSKSTVYLQMNSLKTEDTAVYYCTTGTDYWGQGTTVTVSS
VL: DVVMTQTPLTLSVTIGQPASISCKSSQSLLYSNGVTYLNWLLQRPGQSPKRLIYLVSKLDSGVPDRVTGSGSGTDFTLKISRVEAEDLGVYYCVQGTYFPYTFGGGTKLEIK
- EC50 (CD24(27-56aa)-GST NEOX-4 [5]): 0.0494 µg/mL

B11: huG14-124-3 (antibody, V domains shown)
VH: EVQLVESGGGLVKPGGSLRLSCAASGLTFSNYWGNWVRQAPGKGLEWVALIRLYSDNYAIHYAESVKGRFTISRDDSKSTVYLQMNSLKTEDTAVYYCTTGTDYWGQGTTVTVSS
VL: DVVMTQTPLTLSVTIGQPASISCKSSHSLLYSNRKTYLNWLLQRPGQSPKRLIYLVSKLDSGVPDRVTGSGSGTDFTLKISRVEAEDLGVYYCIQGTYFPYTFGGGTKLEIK
- Kd [4]: 1.52 nM

B12: huG14-101 (antibody, V domains shown)
VH: EVQLVESGGGLVKPGGSLRLSCAASGLTFSNYWMNWVRQAPGKGLEWVALIRLYSDNYAIHYAESVKGRFTISRDDSKSTVYLQMNSLKTEDTAVYYCTTGTDYWGQGTTVTVSS
VL: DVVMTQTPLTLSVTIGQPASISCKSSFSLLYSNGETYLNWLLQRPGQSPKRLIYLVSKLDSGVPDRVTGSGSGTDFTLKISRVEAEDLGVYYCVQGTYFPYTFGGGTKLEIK
- EC50 (CD24(27-56aa)-GST NEOX-4 [5]): 0.0325 µg/mL

B13: huG14-102 (antibody, V domains shown)
VH: EVQLVESGGGLVKPGGSLRLSCAASGLTFSNYWMNWVRQAPGKGLEWVALIRLYSDNYAIHYAESVKGRFTISRDDSKSTVYLQMNSLKTEDTAVYYCTTGTDYWGQGTTVTVSS
VL: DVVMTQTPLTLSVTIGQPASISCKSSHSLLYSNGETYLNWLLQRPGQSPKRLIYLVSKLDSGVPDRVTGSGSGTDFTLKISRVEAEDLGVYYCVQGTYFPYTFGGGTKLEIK
- EC50 (CD24(27-56aa)-GST NEOX-4 [5]): 0.00961 µg/mL

B14: huG14-230 (antibody, V domains shown)
VH: EVQLVESGGGLVKPGGSLRLSCAASGLTFSNYWGNWVRQAPGKGLEWVALIRLYSDNYAIHYAESVKGRFTISRDDSKSTVYLQMNSLKTEDTAVYYCTTGTDNWGQGTTVTVSS
VL: DVVMTQSPLSLPVTPGRPASISCKSSHSLLYSNGKTYLNWLLQKPGQSPQRLIYLVSKLDSGVPDRFSGSGSGTDFTLKISRVEAEDLGVYYCIQGTYFPYTFGQGTKLEIK
- EC50 (CD24 (cell surface) [1]): 0.63 µg/mL
- EC50 (CD24(27-56aa)-GST NEOX-4 [2]): 0.00889 µg/mL
- EC50 (CD24 (cell surface) [3]): 0.35 µg/mL

B15: huG14-125 (antibody, V domains shown)
VH: EVQLVESGGGLVKPGGSLRLSCAASGLTFSNYWGNWVRQAPGKGLEWVALIRLYSDNYAIHYAESVKGRFTISRDDSKSTVYLQMNSLKTEDTAVYYCTTGTDYWGQGTTVTVSS
VL: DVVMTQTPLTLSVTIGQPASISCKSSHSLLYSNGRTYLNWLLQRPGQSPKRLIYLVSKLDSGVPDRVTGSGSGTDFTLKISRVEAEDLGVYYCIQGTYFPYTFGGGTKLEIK
- EC50 (CD24 (cell surface) [1]): 0.684 µg/mL
- EC50 (CD24(27-56aa)-GST NEOX-4 [6]): 0.00619 µg/mL
- EC50 (CD24 (cell surface) [3]): 0.443 µg/mL

B16: huG14-124-1 (antibody, V domains shown)
VH: EVQLVESGGGLVKPGGSLRLSCAASGLTFSNYWGNWVRQAPGKGLEWVALIRLYSDNYAIHYAESVKGRFTISRDDSKSTVYLQMNSLKTEDTAVYYCTTGTDYWGQGTTVTVSS
VL: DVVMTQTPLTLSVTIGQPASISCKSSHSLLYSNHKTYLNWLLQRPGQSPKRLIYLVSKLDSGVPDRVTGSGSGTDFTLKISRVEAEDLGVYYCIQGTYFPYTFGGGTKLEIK
- Kd [4]: 2.08 nM

B17: huG14-1 (antibody, V domains shown)
VH: EVQLVESGGGLVKPGGSLRLSCAASGLTFSNYWMNWVRQAPGKGLEWVALIRLYSDNYAIHYAESVKGRFTISRDDSKSTVYLQMNSLKTEDTAVYYCTTGTDYWGQGTTVTVSS
VL: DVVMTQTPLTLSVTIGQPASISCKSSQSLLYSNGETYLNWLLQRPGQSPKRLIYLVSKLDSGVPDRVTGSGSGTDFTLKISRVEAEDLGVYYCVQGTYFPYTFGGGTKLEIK
- EC50 (CD24(27-56aa)-GST NEOX-4 [5]): 0.136 µg/mL and 0.128 µg/mL
- EC50 (CD24(27-56aa)-GST NEOX-4 [6]): 0.154 µg/mL
- EC50 (CD24(27-56aa)-GST NEOX-4 [2]): 0.177 µg/mL

B18: huG14-124-5 (antibody, V domains shown)
VH: EVQLVESGGGLVKPGGSLRLSCAASGLTFSNYWGNWVRQAPGKGLEWVALIRLYSDNYAIHYAESVKGRFTISRDDSKSTVYLQMNSLKTEDTAVYYCTTGTDYWGQGTTVTVSS
VL: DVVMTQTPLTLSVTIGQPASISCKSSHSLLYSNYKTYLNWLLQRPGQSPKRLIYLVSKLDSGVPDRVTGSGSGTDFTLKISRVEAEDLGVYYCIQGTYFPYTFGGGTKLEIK
- Kd [4]: 2.13 nM

B19: huG14-124 (antibody, V domains shown)
VH: EVQLVESGGGLVKPGGSLRLSCAASGLTFSNYWGNWVRQAPGKGLEWVALIRLYSDNYAIHYAESVKGRFTISRDDSKSTVYLQMNSLKTEDTAVYYCTTGTDYWGQGTTVTVSS
VL: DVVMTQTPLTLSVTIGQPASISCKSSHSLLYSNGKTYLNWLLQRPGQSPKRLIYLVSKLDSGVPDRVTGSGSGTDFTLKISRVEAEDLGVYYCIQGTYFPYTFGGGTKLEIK
- EC50 (CD24 (cell surface) [1]): 0.827 µg/mL
- EC50 (CD24(27-56aa)-GST NEOX-4 [6]): 0.00406 µg/mL
- Kd [4]: 19 nM
- EC50 (CD24 (cell surface) [3]): 0.609 µg/mL

B20: huG14-110 (antibody, V domains shown)
VH: EVQLVESGGGLVKPGGSLRLSCAASGLTFSNYWMNWVRQAPGKGLEWVALIRLYSDNYAIHYAESVKGRFTISRDDSKSTVYLQMNSLKTEDTAVYYCTTGTDNWGQGTTVTVSS
VL: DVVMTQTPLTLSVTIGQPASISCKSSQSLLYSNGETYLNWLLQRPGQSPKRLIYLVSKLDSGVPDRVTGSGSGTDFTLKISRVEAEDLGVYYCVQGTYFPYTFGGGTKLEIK
- EC50 (CD24(27-56aa)-GST NEOX-4 [5]): 0.0153 µg/mL

B21: huG14-106 (antibody, V domains shown)
VH: EVQLVESGGGLVKPGGSLRLSCAASGLTFSNYWMNWVRQAPGKGLEWVALIRLYSDNYAIHYAESVKGRFTISRDDSKSTVYLQMNSLKTEDTAVYYCTTGTDYWGQGTTVTVSS
VL: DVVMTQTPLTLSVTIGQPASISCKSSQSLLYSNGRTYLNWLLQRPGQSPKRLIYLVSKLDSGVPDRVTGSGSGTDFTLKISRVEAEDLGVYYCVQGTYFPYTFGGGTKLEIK
- EC50 (CD24(27-56aa)-GST NEOX-4 [5]): 0.0157 µg/mL

B22: huG14-124-8 (antibody, V domains shown)
VH: EVQLVESGGGLVKPGGSLRLSCAASGLTFSNYWGNWVRQAPGKGLEWVALIRLYSDNYAIHYAESVKGRFTISRDDSKSTVYLQMNSLKTEDTAVYYCTTGTDYWGQGTTVTVSS
VL: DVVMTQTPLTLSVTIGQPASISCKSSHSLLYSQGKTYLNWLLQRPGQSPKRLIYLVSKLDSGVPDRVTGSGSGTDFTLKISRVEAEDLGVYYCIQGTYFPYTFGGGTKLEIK
- Kd [4]: 10.6 nM

B23: huG14-108 (antibody, V domains shown)
VH: EVQLVESGGGLVKPGGSLRLSCAASGLTFSNYWMNWVRQAPGKGLEWVALIRLYSDNYAIHYAESVKGRFTISRDDSKSTVYLQMNSLKTEDTAVYYCTTGTDYWGQGTTVTVSS
VL: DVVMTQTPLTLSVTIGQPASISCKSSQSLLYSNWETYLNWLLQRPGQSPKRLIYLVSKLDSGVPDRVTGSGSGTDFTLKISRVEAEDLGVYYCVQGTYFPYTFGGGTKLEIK
- EC50 (CD24(27-56aa)-GST NEOX-4 [5]): 0.0784 µg/mL

B24: huG14-124-9 (antibody, V domains shown)
VH: EVQLVESGGGLVKPGGSLRLSCAASGLTFSNYWGNWVRQAPGKGLEWVALIRLYSDNYAIHYAESVKGRFTISRDDSKSTVYLQMNSLKTEDTAVYYCTTGTDYWGQGTTVTVSS
VL: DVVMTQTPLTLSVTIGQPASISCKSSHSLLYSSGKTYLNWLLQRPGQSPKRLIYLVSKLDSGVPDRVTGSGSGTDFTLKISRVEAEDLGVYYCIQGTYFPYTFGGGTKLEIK
- Kd [4]: 9.77 nM

B25: huG14-216 (antibody, V domains shown)
VH: EVQLVESGGGLVKPGGSLRLSCAASGLTFSNYWGNWVRQAPGKGLEWVALIRLYSDNYAIHYAESVKGRFTISRDDSKSTVYLQMNSLKTEDTAVYYCTTGTDYWGQGTTVTVSS
VL: DVVMTQSPLSLPVTPGRPASISCKSSHSLLYSNGKTYLNWLLQKPGQSPQRLIYLVSKLDSGVPDRFSGSGSGTDFTLKISRVEAEDLGVYYCIQGTYFPYTFGQGTKLEIK
- EC50 (CD24 (cell surface) [1]): 0.676 µg/mL
- EC50 (CD24(27-56aa)-GST NEOX-4 [2]): 0.0044 µg/mL
- EC50 (CD24 (cell surface) [3]): 0.431 µg/mL

B26: P6373 (antibody, V domains shown)
VH: EVKFEESGGGLVQPGGSIKLSCAASGVTFSEAWMDWVRQSPEKGLEWVAEIRDKPNSYVTYYAESVKGRFTISRDDSKSRVYLQMNNLRTEDTGIYYCTGAMDYWGQGTSVTVSS
VL: DIVMTQTPLSLSVTIGQPASISCKSSQSLLYSNGKTYLNWLQQRPGQSPKRLIYQVSKLDPGIPDRFSGSGSETDFTLKISRVEAEDLGIYYCMQGSSLPWTFGGGTKLEIKR
- EC50 (CD24 (cell surface) [3]): 0.469 µg/mL and 0.217 µg/mL

B27: G14 (antibody, V domains shown)
VH: EVKLEESGGGLVQPGGSMKLSCVASGLTFSNYWMNWVRQSPEKGLEWVALIRLYSDNYAIHYAESVKGRFTISRDDSKSSVYLQMNNLRAEDTGIYYCTTGTDYWGQGTTLTVSS
VL: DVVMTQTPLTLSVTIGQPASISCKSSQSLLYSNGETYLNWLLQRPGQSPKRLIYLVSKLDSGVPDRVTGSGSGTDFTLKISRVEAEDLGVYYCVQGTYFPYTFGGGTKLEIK
- EC50 (CD24(27-56aa)-GST NEOX-4 [5]): 0.0248 µg/mL and 0.00988 µg/mL
- EC50 (CD24(27-56aa)-GST NEOX-4 [6]): 0.031 µg/mL
- Kd [7]: 12.1 nM
- EC50 (CD24(27-56aa)-GST NEOX-4 [2]): 0.0366 µg/mL
- EC50 (CD24 (cell surface) [3]): 7.3 µg/mL and 18.5 µg/mL
